# B1: RTP4 WT (peptide)
# chain: AFGWFRCSSCQRSWASAQVQILCH
# B2: IKZF1 WT (peptide)
# chain: RDPFECNMCGYHSQDRYEFSSHIT
# B3: TRIM43 WT (peptide)
# chain: NNSWIRKNSTMVNSEDIFLLLCLK
# B4: ZBTB22 WT (peptide)
# chain: RPFDCPVCNKKFKMKHHLTEHMKT
# B5: RTP4 WT (peptide)
# chain: TYWEHWTSQGQVRMRLFGQRCQKC
# B6: IKZF1 WT (peptide)
# chain: YHSQDRYEFSSHITRGEHRFHMS
# B7: ETS2 WT (peptide)
# chain: TSGKRYVYRFVCDLQNLLGFTPEE
# B8: C2orf65 WT (peptide)
# chain: QLDWDELETNQQHFHALCHSLLVS
# B9: TIA1 WT (peptide)
# chain: TYECRCIGEEKEMWNFGEKYARF
# B10: ZBTB22 WT (peptide)
# chain: FSSSSQEAFAASAVGSGERRGGGP
# B11: FAM107A WT (peptide)
# chain: LQRVLEHRRRNQLIKKKKEELEAK
# B12: SMARCE1 WT (peptide)
# chain: YHNSPAYLAYINAKSRAEAALEEE
# B13: ESR2 WT (peptide)
# chain: KSCQACRLRKCYEVGMVKCGSRRE
# B14: RAB22A WT (peptide)
# chain: FVEDSFDPNINPTIGASFMTKTVQ
# B15: IKZF1 WT (peptide)
# chain: HIKLHSGEKPFKCHLCNYACRRRD
# B16: VAMP4 WT (peptide)
# chain: FLRGPSGPRFGPRNDKIKHVQNQV
# B17: SPSB1 WT (peptide)
# chain: DMRDPTYRPLKQELQGLDYCKPTR
# B18: ZBTB22 WT (peptide)
# chain: HTGLKPYECGVCAKKFMWRDSFMR
# B19: ZBTB22 WT (peptide)
# chain: AVLAASSPYFHDQVLLKGMTSISL
# B20: TRIM43 WT (peptide)
# chain: FCDMDKSLLCLLCSNSQEHGAHKH
# B21: TRIM43 WT (peptide)
# chain: RAQMIRNEYRKLHPVLHKEEKQHL
# B22: C19orf51 WT (peptide)
# chain: FAPQTGARPSETFARFCKSQESAL
# B23: TRIM43 WT (peptide)
# chain: NRFRVEISFHFEVTNHNIRLFEDV
# B24: SNX3 WT (peptide)
# chain: FLRQLPFRGDDGIFDDNFIEERKQ
# B25: VAMP4 WT (peptide)
# chain: IMALVAAILLLVIIILIVMKYRT
# B26: FAM107A WT (peptide)
# chain: HRRGLGVDSKPELQRVLEHRRRNQ
# B27: TRIM43 WT (peptide)
# chain: YQEIFQQLQRSWVKMDQKSKHLKE
# Experiment: protein stability index of a GFP-peptide fusion (GPS, HEK-293T) (PSI 1-6); higher = more stable
# 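Further: lentivirally expressed fusions sorted by FACS into six bins by GFP to DsRed ratio, PSI derived from sequencing read proportions per bin multiplied by bin number.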
protein,measurement,setting,value
B1,protein stability index,"parent: IOH10686_9, c terminus: a fixed tail appended",2.29
B2,protein stability index,"parent: IOH9679_75, c terminus: a fixed tail appended",1.89
B3,protein stability index,"parent: IOH10304_60, c terminus: a fixed tail appended",2.69
B4,protein stability index,"parent: IOH10718_86, c terminus: a fixed tail appended",2.37
B5,protein stability index,"parent: IOH10686_13, c terminus: a fixed tail appended",1.83
B6,protein stability index,"parent: IOH9679_77, c terminus: native",2.09
B7,protein stability index,"parent: IOH10422_73, c terminus: a fixed tail appended",2.7
B8,protein stability index,"parent: IOH10869_57, c terminus: a fixed tail appended",2.16
B9,protein stability index,"parent: IOH10042_33, c terminus: native",1.9
B10,protein stability index,"parent: IOH10718_37, c terminus: a fixed tail appended",3.33
B11,protein stability index,"parent: IOH10203_12, c terminus: a fixed tail appended",3.41
B12,protein stability index,"parent: IOH7424_23, c terminus: a fixed tail appended",2.1
B13,protein stability index,"parent: IOH10714_34, c terminus: a fixed tail appended",1.85
B14,protein stability index,"parent: IOH10004_5, c terminus: a fixed tail appended",2.26
B15,protein stability index,"parent: IOH9679_28, c terminus: a fixed tail appended",1.92
B16,protein stability index,"parent: IOH7463_7, c terminus: a fixed tail appended",2.7
B17,protein stability index,"parent: IOH10100_3, c terminus: a fixed tail appended",3.17
B18,protein stability index,"parent: IOH10718_90, c terminus: a fixed tail appended",2.3
B19,protein stability index,"parent: IOH10718_13, c terminus: a fixed tail appended",2.63
B20,protein stability index,"parent: IOH10304_18, c terminus: a fixed tail appended",1.87
B21,protein stability index,"parent: IOH10304_30, c terminus: a fixed tail appended",3.05
B22,protein stability index,"parent: IOH10770_74, c terminus: a fixed tail appended",2.22
B23,protein stability index,"parent: IOH10304_48, c terminus: a fixed tail appended",2.93
B24,protein stability index,"parent: IOH7529_17, c terminus: a fixed tail appended",3.4
B25,protein stability index,"parent: IOH7463_24, c terminus: native",2.83
B26,protein stability index,"parent: IOH10203_10, c terminus: a fixed tail appended",3.91
B27,protein stability index,"parent: IOH10304_35, c terminus: a fixed tail appended",2.05

# From the supplement of paper PMC10567573
